For one molecule, Kd, koff and kon results are on record in publication PMC5584245.

Experiment [1] has as its target hG7-BM1 (hVH-B1, hVL-B1) (human). Nature of the experiment: SPR; Biacore X100; CD24-GST flowed over immobilized antibody; 1:1 binding model; procedure as in ref. 45. (In general: SPR reads the build-up and loss of mass on a sensor chip optically.)
Experiment [2] shares this target. Described as above. This is another data set of the same source.

Like-named read-outs stand apart in the source and are kept apart here.

What is called Kd is the constant that tells how readily two partners part at equilibrium. A high value points to lower affinity. A word on the koff: it is a measure of how fast the partners let go of each other. For orientation: kon means a measure of how fast the partners come together. Read a low kon as slower complex formation.

Chain of hG7-BM1 (hVH-B1, hVL-B1) (human) (heavy, as listed by the source, chain 1 of 2): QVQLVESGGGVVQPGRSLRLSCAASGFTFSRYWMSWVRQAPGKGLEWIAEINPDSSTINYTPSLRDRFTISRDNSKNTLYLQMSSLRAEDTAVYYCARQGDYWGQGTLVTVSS
Chain of hG7-BM1 (hVH-B1, hVL-B1) (human) (light, as listed by the source, chain 2 of 2): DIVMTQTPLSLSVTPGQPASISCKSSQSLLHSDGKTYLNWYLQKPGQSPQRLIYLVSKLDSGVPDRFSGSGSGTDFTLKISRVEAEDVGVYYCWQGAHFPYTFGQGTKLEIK

In experiment [1], SETTTGTSSNSSQSTSNSGLAPNPTNATTKAAG (natural protein) [CD24-GST] came in with an equilibrium dissociation constant (Kd) of 1.64 nM, a koff of 0.000764 s⁻¹ and a kon of 465000 M⁻¹ s⁻¹. The same molecule had a Kd in experiment [2] of 0.164 nM.
